Measured values: patent publication US7816094B2, “Method for quantitative analysis of interactions between HIF-1alpha C-terminal peptides and CBP or p300 proteins and method of screening inhibitors using the same” (Korea Institute of Science and Technology, priority 2006, dated 2010)
Ends that are not written are not given here. * marks the point of attachment. FITC = O=C1OC2(c3ccc(O)cc3Oc3cc(O)ccc32)c2ccc(NC(=S)*)cc21; Ahx = NCCCCCC(=O)O

How the values were obtained:
[1] = target: T1, GST-CBP (truncated human CBP, amino acids 1-450) (Homo sapiens, UniProt Q92793); experiment: Fluorescence polarization (FP)-based binding assay of fluorescein-labeled HIF-1α peptides with GST-CBP; conditions: GST-CBP 0 to 3000 nM; FIG. 2A
T1 construct: made in house; host or cells: E. coli BL21
T1 sequence (Q92793 1-450): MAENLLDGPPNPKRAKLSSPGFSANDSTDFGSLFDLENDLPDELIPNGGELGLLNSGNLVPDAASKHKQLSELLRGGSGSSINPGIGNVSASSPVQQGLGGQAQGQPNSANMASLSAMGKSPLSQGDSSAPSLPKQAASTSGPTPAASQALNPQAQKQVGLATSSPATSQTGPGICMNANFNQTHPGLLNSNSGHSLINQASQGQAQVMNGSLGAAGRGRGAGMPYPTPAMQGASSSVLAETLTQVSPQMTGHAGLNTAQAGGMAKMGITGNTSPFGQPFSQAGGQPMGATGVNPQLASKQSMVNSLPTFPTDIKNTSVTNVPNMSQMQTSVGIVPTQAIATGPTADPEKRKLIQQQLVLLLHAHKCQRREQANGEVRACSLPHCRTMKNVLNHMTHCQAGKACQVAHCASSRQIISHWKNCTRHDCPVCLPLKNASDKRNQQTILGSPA
Protocol: (§1) The binding affinity and features between the HIF-1α peptides and CBP or p300 proteins were analyzed by measuring the fluorescence polarization (FP) values that were changed by the formation of a protein-ligand complex through the interaction between the CBP or p300 proteins and the synthesized peptides that were manufactured by the method as described in above Example 1. The FP values were measured with a fluorescence spectrometer (Perkin-Elmer), which was set to have a slit width of 5 nm and a total integration time of 5 seconds. EBC Buffer (50 mM Tris and 120 mM NaCl; pH 8.0, 0.25% Nonidet P (NP)-40) was used for the binding reaction.
Because the cysteine-/histidine-rich 1(CH1) domain of CBP or p300 proteins that binds the C-terminal transactivation domain (C-TAD) of HIF-1α contains the Zn^2+-coordinating centers, an embodiment of the present invention first tested for the importance of Zn^2+ added in the preparation of CBP or p300 proteins by cell lysis and protein elution on their binding to the HIF-1α-derived peptides, wherein the GST-CBP or GST-p300 proteins containing the CH1 domain were prepared by cell lysis and protein elution in the presence or absence of ZnSO4. […] Then, the FP (fluorescence polarization) values were measured. […]

[2] = target: T2, GST-p300 (truncated p300, amino acids 1-221) (Homo sapiens, UniProt Q09472); experiment: Fluorescence polarization (FP)-based binding assay of fluorescein-labeled HIF-1α peptides with GST-p300; conditions: increasing GST-p300 concentrations; FIG. 2B, 3B, 4C, 5B, 5D
T2 construct: made in house; host or cells: E. coli BL21
T2 sequence (Q09472 300-520): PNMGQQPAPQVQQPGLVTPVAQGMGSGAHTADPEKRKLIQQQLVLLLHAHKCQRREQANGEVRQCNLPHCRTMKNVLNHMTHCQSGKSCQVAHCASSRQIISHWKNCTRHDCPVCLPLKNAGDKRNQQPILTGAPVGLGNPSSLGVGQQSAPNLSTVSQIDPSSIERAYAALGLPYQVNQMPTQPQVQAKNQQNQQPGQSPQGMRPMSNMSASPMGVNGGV
Protocol: as §1
Because the cysteine-/histidine-rich 1(CH1) domain of CBP or p300 proteins that binds the C-terminal transactivation domain (C-TAD) of HIF-1α contains the Zn^2+-coordinating centers, an embodiment of the present invention first tested for the importance of Zn^2+ added in the preparation of CBP or p300 proteins by cell lysis and protein elution on their binding to the HIF-1α-derived peptides, wherein the GST-CBP or GST-p300 proteins containing the CH1 domain were prepared by cell lysis and protein elution in the presence or absence of ZnSO4. 800 nM of CBP or p300 proteins in the EBC Buffer prepared from above Example 1 were mixed with 100 nM of F-HIF-1α(776-826, SEQ ID NO: 3) and F-HIF-1α(786-826, SEQ ID NO: 4) peptides at 25° C., respectively. Then, the FP (fluorescence polarization) values were measured.
To compare interactions between the four peptides derived from different regions in HIF-1α C-TAD with CBP or p300, these fluorescein-labeled HIF-1α peptides were mixed with CBP proteins at varying concentrations from 0 to 3000 nM under the conditions of above Example 2-2, and then the FP (fluorescence polarization) values were measured (FIG. 2A).
The dissociation constants of these two peptides were determined to be 157.3 nM for HIF-1α(776-826, SEQ ID NO: 3) and 180.1 nM for HIF-1α(786-826, SEQ ID NO: 4), respectively.

[3] = target: T3, GST-p300 / F-HIF-1α-(786-826, SEQ ID NO: 4) interaction (Homo sapiens, UniProt Q09472); experiment: Competitive inhibition analysis of the FP-based binding assay (F-HIF-1α-p300 interaction); conditions: compared with wild-type peptide; FIG. 6
T3 construct: made in house; host or cells: E. coli BL21 for GST-p300; the tracer peptide was synthesized by Anygen
T3 sequence (Q09472 300-520): as above
Protocol: To compare the importance of Thr-796, Cys-800, and Asn-803 residues in the HIF-1α peptide on its p300 binding activity, an embodiment of the present invention performed competitive inhibition analyses of the FP-based binding assays using single mutant peptides. The mutant peptides were prepared with the method as described below.
Namely, human HIF-1α-(786-826, SEQ ID NO: 4) and its single mutation products prepared by PCR were subcloned into pGEX-2T-1 (Amersham Biosciences), and overexpressed in E. coli BL21 (DE3). After the GST fusion proteins were purified using glutathione-SEPHAROSE (Amersham Biosciences), followed by GST removal with thrombin treatment, the resulting peptides were purified using reverse-phase HPLC and confirmed by MALDI-TOF mass spectrometry. The results of competitive inhibition for HIF-1α-(786-826, SEQ ID NO: 4) peptides with point mutations on the HIF-1α-p300 interaction are depicted in FIG. 6.

| Substance | FP values (change) upon mixing with GST-CBP [1] | FP values (change) upon mixing with GST-p300 [2] | competitive inhibition of F-HIF-1α-(786-826, SEQ ID NO: 4) binding to p300 [3] |
| --- | --- | --- | --- |
| FITC-ACA-DESGLPQLTSYDCEVNAPIQGSRNLLQGEELLRAL ({FITC-Ahx}-DESGLPQLTSYDCEVNAPIQGSRNLLQGEELLRAL) [HIF-1α(788-822, SEQ ID NO: 6), fluorescein (FITC)-labeled HIF-1α C-terminal peptide, residues 788-822, aminocaproic acid linker] | increased much less than those of the above two peptides | increased much less than those of the above two peptides | – |
| FITC-ACA-SDLACRLLGQSMDESGLPQLTSYDCEVNAPIQGSRNLLQ ({FITC-Ahx}-SDLACRLLGQSMDESGLPQLTSYDCEVNAPIQGSRNLLQ; cysteine pairing not given here) [HIF-1α(776-814, SEQ ID NO: 5), fluorescein (FITC)-labeled HIF-1α C-terminal peptide, residues 776-814, aminocaproic acid linker] | no increase up to 3000 nM of GST-CBP | no increase upon incubation with GST-p300 | – |
| N803A: unlabeled HIF-1α (786-826) peptide with single mutation N803A (SMDESGLPQLTSYDCEVAAPIQGSRNLLQGEELLRALDQVN; Amino acid sequence for HIF-1a(786-826)) | – | – | to a little lesser degrees than the wild-type |
| S-nitrosylated F-HIF-1α (786-826, SEQ ID NO: 4): F-HIF-1α (786-826, SEQ ID NO: 4) treated with SNAP, S-nitrosylated on Cys-800, purified by reverse-phase HPLC | – | only minimal increase in FP with increasing p300 concentrations | – |
| T796D: unlabeled HIF-1α (786-826) peptide with single mutation T796D (SMDESGLPQLDSYDCEVNAPIQGSRNLLQGEELLRALDQVN; Amino acid sequence for HIF-1a(786-826)) | – | – | to a little lesser degrees than the wild-type |
| hydroxylated peptide: F-HIF-1α (786-826, SEQ ID NO: 4) hydroxylated on asparagine by recombinant His-FIH-1, purified by reverse-phase HPLC | – | only slightly increased with increasing p300 concentrations | – |
| peptide treated with N or H kinase fractions: F-HIF-1α (786-826, SEQ ID NO: 4) phosphorylated by normoxic or hypoxic HeLa kinase fractions, purified by reverse-phase HPLC | – | FP increase upon incubation with GST-p300, similar to the untreated peptide | – |
